What was measured:
human TREM2 [1] = target: T1, human TREM2 (human, UniProt Q9NZC2 19-174, limits assumed); assay: 2nd screen 10 nM
T1 construct: also called triggering receptor expressed on myeloid cells 2
T1 sequence: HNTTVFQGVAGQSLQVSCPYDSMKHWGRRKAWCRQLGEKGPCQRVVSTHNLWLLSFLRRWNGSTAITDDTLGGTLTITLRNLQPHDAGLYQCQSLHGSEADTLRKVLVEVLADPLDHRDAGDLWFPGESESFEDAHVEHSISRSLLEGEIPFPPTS

human TREM2 [2] = target: T1, human TREM2; assay: 2nd screen 2 nM
human TREM2 [3] = target: T1, human TREM2; assay: 1st screen (110 nM or 10 nM)

Row | Binder | Binding Signal (fold over 6E7 Parental antibody) (human TREM2 [1]) [fold] | Binding Signal (fold over 6E7 Parental antibody) (human TREM2 [2]) [fold] | Binding Signal (fold over 6E7 Parental antibody) (human TREM2 [3]) [fold]
1 | V1 (antibody, V domains shown) VH: EVQLVQSGAEVKKPGESLKISCKGSGYSFTSSWIAWVRQMPGKGLEWMGIIYPGDSDTRYSPSFQGQVTISADKSISTAYLQWSSLKASDTAMYFCARSRTFYYDSSDYFDYWGQGTLVTVSS VL: DIQMTQSPSSVSASVGDRVTITCRASQGISSWLAWYQQKPGKAPKLLIYAASSLTNGVPSRFSGSGSGTDFTLTISSLQPEDFATYFCQQADSYPRTFGQGTKLEIK | 1.92 | 1.29 | 1.68
2 | V3 (antibody, V domains shown) VH: EVQLVQSGAEVKKPGESLKISCKGSGYSFASYWIAWVRQMPGKGLEWMGIIYPGDSDTRYSPSFQDQVTISADKSISTAYLQWSSLKASDTAMYFCARGRTFYYDSSDYFDYWGQGTLVTVSS VL: DIQMTQSPSSVSASVGDRVTITCRASQGISSWLAWYQQKPGKAPKLLIYAASSRQNGVPSRFSGSGSGTDFTLTISSLQPEDFATYFCQQADRFPRTFGQGTKLEIK | 2.24 | 1.95 | 1.97
3 | V13 (antibody, V domains shown) VH: EVQLVQSGAEVKKPGESLKISCKGSGYSFGSYWIAWVRQMPGKGLEWMGIIYPGDSDTRYSASFQGQVTISADKSISTAYLQWSSLKASDTAMYFCARGRTFYYDSSDYFDYWGQGTLVTVSS VL: DIQMTQSPSSVSASVGDRVTITCRASQGISSWLAWYQQKPGKAPKLLIYAASSLQGGVPSRFSGSGSGTDFTLTISSLQPEDFATYFCQQADSMPRTFGQGTKLEIK | 1.35 | 1.15 | 1.31
4 | V2 (antibody, V domains shown) VH: EVQLVQSGAEVKKPGESLKISCKGSGSSFTSYWIAWVRQMPGKGLEWMGIIYPGDGDTRYSPSFQGQVTISADKSISTAYLQWSSLKASDTAMYFCARSRTFYYDSSDYFDYWGQGTLVTVSS VL: DIQMTQSPSSVSASVGDRVTITCRASQGISSWLAWYQQKPGKAPKLLIYAASSRQNGVPSRFSGSGSGTDFTLTISSLQPEDFATYFCQQADRFPRTFGQGTKLEIK | 2.9 | 2.23 | 2.55
5 | V5 (antibody, V domains shown) VH: EVQLVQSGAEVKKPGESLKISCKGSGYSFTSYWIAWVRQMPGKGLEWMGTIYPGDSDTRYSPSFQGQVTISADKSISTAYLQWSSLKASDTAMYFCARQRTFYYDSSDYFDYWGQGTLVTVSS VL: DIQMTQSPSSVSASVGDRVTITCRASQGISSWLAWYQQKPGKAPKLLIYAASSLQNGVPSRFSGSGSGTDFTLTISSLQPEDFATYFCQQADSHPRTFGQGTKLEIK | 2.84 | 1.25 | 2.73
6 | V4 (antibody, V domains shown) VH: EVQLVQSGAEVKKPGESLKISCKGSGYSFGSYWIAWVRQMPGKGLEWMGIIYPGDSDTRVSPSFQGQVTISADKSISTAYLQWSSLKASDTAMYFCARSRTFYYDSSDYFDYWGQGTLVTVSS VL: DIQMTQSPSSVSASVGDRVTITCRASQGISSWLAWYQQKPGKAPKLLIYAASRLQNGVPSRFSGSGSGTDFTLTISSLQPEDFATYFCQQADSYPRTFGQGTKLEIK | 5.51 | 5.88 | 6
7 | V15 (antibody, V domains shown) VH: EVQLVQSGAEVKKPGESLKISCKGSGYSFASYWIAWVRQMPGKGLEWMGTIYPGDSDTRYSPSFQGQVTISADKSISTAYLQWSSLKASDTAMYFCARSRTFYYDSSDYFDYWGQGTLVTVSS VL: DIQMTQSPSSVSASVGDRVTITCRASQGISSWLAWYQQKPGKAPKLLIYAASWLQNGVPSRFSGSGSGTDFTLTISSLQPEDFATYFCQQADSYPRTFGQGTKLEIK | 4.78 | 4.72 | 5.23
8 | V16 (antibody, V domains shown) VH: EVQLVQSGAEVKKPGESLKISCKGSGYSMTSYWIAWVRQMPGKGLEWMGIIYPGDGDTRYSPSFQGQVTISADKSISTAYLQWSSLKASDTAMYFCARSRTFYYDSSDYFDYWGQGTLVTVSS VL: DIQMTQSPSSVSASVGDRVTITCRASQGISSWLAWYQQKPGKAPKLLIYAASNLQNGVPSRFSGSGSGTDFTLTISSLQPEDFATYFCQQADSFPRTFGQGTKLEIK | 4.04 | 3.57 | 4.01
9 | V17 (antibody, V domains shown) VH: EVQLVQSGAEVKKPGESLKISCKGSGYSFGSYWIAWVRQMPGKGLEWMGIIYPGDSDTRYSPSFQGQVTISADKSISTAYLQWSSLKASDTAMYFCARSRTFYYDSSDYFDYWGQGTLVTVSS VL: DIQMTQSPSSVSASVGDRVTITCRASQGISSWLAWYQQKPGKAPKLLIYAASSRQNGVPSRFSGSGSGTDFTLTISSLQPEDFATYFCQQADSSPRTFGQGTKLEIK | 5.51 | 4.22 | 5.37
10 | V25 (antibody, V domains shown) VH: EVQLVQSGAEVKKPGESLKISCKGSGYSFGSYWIAWVRQMPGKGLEWMGLIYPGDSDTRYSPSFQGQVTISADKSISTAYLQWSSLKASDTAMYFCARSRTFYYDSSDYFDYWGQGTLVTVSS VL: DIQMTQSPSSVSASVGDRVTITCRASQGISSWLAWYQQKPGKAPKLLIYAASSLANGVPSRFSGSGSGTDFTLTISSLQPEDFATYFCQQADSMPRTFGQGTKLEIK | 4.7 | 3.15 | 4.23
11 | V24 (antibody, V domains shown) VH: EVQLVQSGAEVKKPGESLKISCKGSGYSFTSYWIAWVRQMPGKGLEWMGIIYPGDSDVRYSPSFQGQVTISADKSISTAYLQWSSLKASDTAMYFCARSRTFYYDSSDYFDYWGQGTLVTVSS VL: DIQMTQSPSSVSASVGDRVTITCRASQGISSWLAWYQQKPGKAPKLLIYAASSLQKGVPSRFSGSGSGTDFTLTISSLQPEDFATYFCQQADSFPHTFGQGTKLEIK | 2.9 | 1.42 | 2.64
12 | V14 (antibody, V domains shown) VH: EVQLVQSGAEVKKPGESLKISCKGSGYSFGSYWIAWVRQMPGKGLEWMGIIYPGDQDTRYSPSFQGQVTISADKSISTAYLQWSSLKASDTAMYFCARGRTFYYDSSDYFDYWGQGTLVTVSS VL: DIQMTQSPSSVSASVGDRVTITCRASQGISSWLAWYQQKPGKAPKLLIYAASRLQNGVPSRFSGSGSGTDFTLTISSLQPEDFATYFCQQADSFPRTFGQGTKLEIK | 4.64 | 2.57 | 4.71
